Paper PMC7688916 (2020)
Changes are numbered by the printed parent chain. Numbers in names are those of the source. Like-named read-outs stand apart in the source and are kept apart here. One block for each molecule: values may come before it.

How the values were obtained:
Assay in all cases: split reporter (BiFC, NanoBiT); split-GFP (mGFP2 split between residues 157 and 158) in Hfx. volcanii transformants in vivo; eight combinations of fusions a pair, highest relative fluorescence (rf) given; cells in basal salts (3 M NaCl, 150 mM MgSO4, 50 mM KCl) at OD600 1; rf > 5 clear interaction, rf < 1 no interaction
[1] = target: GvpG fused to NGFP or CGFP (split-GFP) (Halobacterium salinarum PHH1)
Chain of GvpG fused to NGFP or CGFP (split-GFP) (Halobacterium salinarum PHH1) (P24371 whole entry, the tested form may be a part): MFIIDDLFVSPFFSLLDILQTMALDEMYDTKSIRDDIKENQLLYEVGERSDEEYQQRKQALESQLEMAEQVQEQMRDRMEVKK

[2] = target: GvpF fused to NGFP or CGFP (split-GFP) (Halobacterium salinarum PHH1)
Chain of GvpF fused to NGFP or CGFP (split-GFP) (Halobacterium salinarum PHH1) (P24370 whole entry, the tested form may be a part): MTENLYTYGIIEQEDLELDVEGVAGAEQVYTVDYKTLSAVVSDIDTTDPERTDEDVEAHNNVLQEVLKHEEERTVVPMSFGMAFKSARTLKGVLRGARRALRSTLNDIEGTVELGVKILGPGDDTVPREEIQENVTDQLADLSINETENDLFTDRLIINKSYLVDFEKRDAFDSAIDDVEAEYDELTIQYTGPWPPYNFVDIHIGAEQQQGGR

[3] = target: GvpL fused to NGFP or CGFP (split-GFP) (Halobacterium salinarum PHH1)
Chain of GvpL fused to NGFP or CGFP (split-GFP) (Halobacterium salinarum PHH1) (Q9HI27 whole entry, the tested form may be a part): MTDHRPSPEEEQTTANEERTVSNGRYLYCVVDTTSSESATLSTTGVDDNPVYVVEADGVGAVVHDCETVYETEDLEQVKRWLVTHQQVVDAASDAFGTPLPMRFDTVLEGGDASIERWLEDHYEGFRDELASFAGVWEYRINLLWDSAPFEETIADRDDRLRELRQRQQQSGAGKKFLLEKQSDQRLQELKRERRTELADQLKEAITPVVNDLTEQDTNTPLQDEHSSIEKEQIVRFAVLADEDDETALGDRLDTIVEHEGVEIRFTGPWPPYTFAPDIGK

[4] = target: GvpI fused to NGFP or CGFP (split-GFP) (Halobacterium salinarum PHH1)
[5] = target: GvpK fused to NGFP or CGFP (split-GFP) (Halobacterium salinarum PHH1)
[6] = target: GvpG fused to NGFP or CGFP (split-GFP) (Halobacterium salinarum PHH1); remark: listed apart in the source
[7] = target: GvpJ fused to NGFP or CGFP (split-GFP) (Halobacterium salinarum PHH1)
[8] = target: GvpF fused to NGFP or CGFP (split-GFP) (Halobacterium salinarum PHH1); remark: listed apart in the source
[9] = target: GvpL fused to NGFP or CGFP (split-GFP) (Halobacterium salinarum PHH1); remark: listed apart in the source
[10] = target: GvpM fused to NGFP or CGFP (split-GFP) (Halobacterium salinarum PHH1)
[11] = target: GvpI fused to NGFP or CGFP (split-GFP) (Halobacterium salinarum PHH1); remark: listed apart in the source
[12] = target: GvpH fused to NGFP or CGFP (split-GFP) (Halobacterium salinarum PHH1)

Molecule: GvpG fused to NGFP or CGFP (split-GFP) (natural protein)
relative fluorescence (rf) [1]: 3.5 rf | highest relative fluorescence (rf) [2]: 5 rf | highest relative fluorescence (rf) [3]: 77.5 rf

Molecule: GvpF fused to NGFP or CGFP (split-GFP) (natural protein)
relative fluorescence (rf) [2]: 1.5 rf | highest relative fluorescence (rf) [3]: 16.6 rf

Molecule: GvpI fused to NGFP or CGFP (split-GFP) (natural protein)
highest relative fluorescence (rf) [2]: 6.3 rf | highest relative fluorescence (rf) [3]: 13.7 rf

highest relative fluorescence (rf) [2]: 6.3 rf | highest relative fluorescence (rf) [3]: 11.4 rf | highest relative fluorescence (rf) [4]: 20 rf
Molecule: GvpH fused to NGFP or CGFP (split-GFP) (natural protein)

highest relative fluorescence (rf) [3]: 7.4 rf
Molecule: GvpK fused to NGFP or CGFP (split-GFP) (natural protein)

highest relative fluorescence (rf) [5]: < 1 rf | highest relative fluorescence (rf) [6]: < 1 rf | highest relative fluorescence (rf) [7]: < 1 rf | highest relative fluorescence (rf) [8]: 20 rf | relative fluorescence (rf) [8]: 15 to 18 rf | highest relative fluorescence (rf) [9]: < 1 rf | highest relative fluorescence (rf) [10]: < 1 rf | highest relative fluorescence (rf) [11]: < 1 rf | highest relative fluorescence (rf) [12]: < 1 rf
B1: GvpA fused to NGFP or CGFP (split-GFP) (natural protein)
chain: MAQPDSSGLAEVLDRVLDKGVVVDVWARVSLVGIEILTVEARVVAASVDTFLHYAEEIAKIEQAELTAGAEAAPEA

relative fluorescence (rf) [8]: < 6 rf
B2: GvpA E40A (split-GFP fusion) (natural protein)
chain: B1 chain with E40A

relative fluorescence (rf) [8]: < 6 rf
B3: GvpA R28A (split-GFP fusion) (natural protein)
chain: B1 chain with R28A

relative fluorescence (rf) [8]: < 6 rf
B4: GvpA R28D (split-GFP fusion) (natural protein)
chain: B1 chain with R28D

relative fluorescence (rf) [8]: < 6 rf
B5: GvpA G20A (split-GFP fusion) (natural protein)
chain: B1 chain with G20A

relative fluorescence (rf) [8]: < 6 rf
B6: GvpA G20D (split-GFP fusion) (natural protein)
chain: B1 chain with G20D

relative fluorescence (rf) [8]: < 6 rf
B7: GvpA D24Y (split-GFP fusion) (natural protein)
chain: B1 chain with D24Y

relative fluorescence (rf) [8]: < 6 rf
B8: GvpA D24A (split-GFP fusion) (natural protein)
chain: B1 chain with D24A

highest relative fluorescence (rf) [8]: < 1 rf
Molecule: VAASVDTFLHYAEEIAKIEQAELTAGAEAAPEA (domain or fragment) [GvpA fragment A44-76 fused to NGFP or CGFP (split-GFP)]

highest relative fluorescence (rf) [8]: < 1 rf
Molecule: GVVVDVWARVSLVGIEILTVEARVVAAS (domain or fragment) [GvpA fragment A20-47 fused to NGFP or CGFP (split-GFP)]

highest relative fluorescence (rf) [8]: 41 rf
Molecule: MAQPDSSGLAEVLDRVLDKGVV (domain or fragment) [GvpA fragment A1-22 fused to NGFP or CGFP (split-GFP)]
